# Test results taken from the DeepSol protein solubility set.
# Test: soluble on expression in E. coli; label from the status in PepcDB or PDB records
row,Sequence,soluble on expression in E. coli
1,MGSDKIHHHHHHMKSIKELYRIGTGPSSSHTMGPRKAAEMFLTRHPEAASFKVTLYGSLAATGKGHMTDVAIIDTLKPTAPVDIIWQPKIFLPFHPNGMNFVALDAGGNELENWTVYSVGGGALAEDNKQPSIESPEVYSMNSMTEILDWCEHTGKSYWEYVKECEDPDIWDYLKEVWDTMKESVQRGLEQEGVLPGPLNLRRKASTYYIRATGYKASLQSRGLVFAYALAVSEENASGGKIVTAPTCGSCGVMPAVLYHLAKSREFSEMRILRALATAGLIGNIVKQNASISGAEVGCQGEVGVACAMASAAANQLFGGSPAQIEYAAEMGLEHHLGMTCDPVCGLVQIPCIERNAYAAARALDANLYSSFTDGMHRVSFDKVIQVMKQTGHDLPSLYKETSEGGLAKDYKPM,not soluble
2,ENHEKEWRFNSRITLVRSPIMLGQQTSHGWRDLIFDVSGGGATPAKHVMQYTGVSYPLNPSMAPTATPEQISGVRLFSDGISPVREGVRL,not soluble
3,MGSDKIHHHHHHMVDSLQKPELEELRPGIKAPAKETILTPRFYTTDFEAMAKMDLSPNEDELRAILEEFRADYNRKHFVRTPEFDGSAADMDPETKKVFVEFLEQSCTSEFSGFLLYKELSRRIKNRNPLLAECFELMARDEARHAGFLNKSMSDFDLQLDLGFLTANKKYTYFKPAYIFYATYLSEKIGYWRYITIFRHLEQHPEYRIYPIFKFFENWCQDENRHGDFFDALMKAQPSTVRGFVAKLWCRFFLLAVFATMYIRDVQRKEFYEALGLDAREYDRHVIAKTNETSARVFPVVLDVDHPKFYDRLETCIANNNQLAAIEATSAPKPVKVLRKLPYYLSNGLQLLKLYLVKPLESDVYQPAVR,not soluble
4,MAHHHHHHGTEKTPDDVFKLAKDEKVEYVDVRFCDLPGIMQHFTIPASAFDKSVFDDGLAFDGSSIRGFQSIHESDMLLLPDPETARIDPFRAAKTLNINFFVHDPFTLEPYSRDPRNIARKAENYLISTGIADTAYFGAEAEFYIFDSVSFDSRANGSFYEVDAISGWWNTGAATEADGSPNRGYKVRHKGGYFPVAPNDQYVDLRDKMLTNLINSGFILEKGHHEVGSGGQAEINYQFNSLLHAADDMQLYKYIIKNTAWQNGKTVTFMPKPLFGDNGSGMHCHQSLWKDGAPLMYDETGYAGLSDTARHYIGGLLHHAPSLLAFTNPTVNSYKRLVPGYEAPINLVYSQRNRSACVRIPITGSNPKAKRLEFRSPDSSGNPYLAFSAMLMAGLDGIKNKIEPQAPVDKDLYELPPEEAASIPQTPTQLSDVIDRLEADHEYLTEGGVFTNDLIETWISFKRENEIEPVNIRPHPYEFALYYDV,soluble
5,MGHHHHHHSHMITREEIANVLDQPVYDGDGNKIGDAKHVFFDDMTGRPEWVSVKTGMFGSTESFVPIRDAALVQDHLEVPYGKDQVKGAPSVDVDAGGHLSETEEHRLYDYYGINWDSVLSEAERTDDDRFAAGPGTAGAAGTAGAAGLAGTAGAAGAAGTAGGRTGREDAMRREGMRGDEGAMRREGMRGDEAMTRSEEQMHIGVERHESGRARLRKYVVTEEVQQTVPVTHEEVRVVREPITDANRDEALAGPEISEAEHEVTLHAERPVVETETVPVERVRMTTEELTENETVRGQVRKERIEAETESFTEGETKNARDDKRRGGK,soluble
6,MKTDVRWATFNIRYDNPQDSLNNWQYRKDRVCQFIKDHELDIVGMQEVLHNQFQDLRAGLPEYDGIGVGRDDGKTAGEYAPLFYRKDKYEVLDSNTFWLAENPDSVGMMGWDAVCVRIATWAKFKDKATGKIFMAVNTHFDHVGEEARRQSALLIIRKIKEIVGERPAVVTGDFNVTDASDAYETITTNEFVMKDAYKTAARVTGVDYTFHDFARIPAEDCEKIDFIFVTPQVLVKSCEIPAEVPEALLSDHNPQLADLELEHHHHHH,soluble
7,MGSDKIHHHHHHMQVLLVGGTGTLGRQIARRAIDAGHQVRCMVRKPRKGAFLQEWGCELTCGDLLDPETIDYSLDGIDAVIDAATSRPDDSASVYTTDWDGKLNLLRACEKAGVTRYVFLSLLAAEKHLNVPLMDIKFCTERLLADSSFDYTILQGVAFMQGLIGQIAIPVLENQTVWVSETPTAVAYMNTQDVARFAVAALERPETIRRSFPVVGPKAWTSEEIVQFCEKSSSKTAKVIRVSPFLIGLSQRVVSFFEQSVNMAERLAFAEVTGGGIALDAPMDDTYSCFGLDSSETTPLESYISEYYDTILKRLREMEADLDEESRKKLPF,not soluble
8,MSTDTSGVGVREIDAGALPTRYARGWHCLGVAKDYLEGKPHGVEAFGTKLVVFADSHGDLKVLDGYCRHMGGDLSEGTVKGDEVACPFHDWRWGGDGRCKLVPYARRTPRMARTRSWTTDVRSGLLFVWHDHEGNPPDPAVRIPEIPEAASDEWTDWRWNRILIEGSNCRDIIDNVTDMAHFFYIHFGLPTYFKNVFEGHIASQYLHNVGRPDVDDLGTSYGEAHLDSEASYFGPSFMINWLHNRYGNYKSESILINCHYPVTQNSFVLQWGVIVEKPKGMSEEMTDKLSRVFTEGVSKGFLQDVEIWKHKTRIDNPLLVEEDGAVYQLRRWYEQFYVDVADIKPEMVERFEIEVDTKRANEFWNAEVEKNLKSREVSDDVPAEQH,soluble
9,MGSDKIHHHHHHMVLMPSPETIFIESGPLSARFRSDWGGRMTHLVHAEMGDILAPTQADVFEPYNWPRAGAYPLVPYHNRVYGASFVESGKTHRLLPHPALTPDAMHGPAHRRPWHVASAAEDRVTLQLNYEADDEWPFSFVAEQHFRLEPDRLIVELSIINSSDASAPVSLGWHPYLAVPLSSHAETDARLEYPLDALNVPTGNEAHPRSSRSIPAATGYTLHFRYWSTATVELDKGTLLLEADPIFEYLAVHRMEKYLCLEPVSMAAGALCLPETERESRGLRTILPEGRLSGRISLSIRG,not soluble
10,MINKLKENIGSVFVGKENVIDLLLVSLLADGHVLLENVPGTGKTLLAKTISKSIGGSFSRVQFTPDVLPSDVTGIEYFNPKTSEFELRIGPVMTNILLADEINRAMPRTQSSLLEAMEERQVTLEKQSTPLPKPFFVIATQNPIESQGTFPLPDAQLDRFLMTISIGHPTPKDELQMMRRFRNDLPLESVTSVISLEDILEAQKRVKEIFVSEPLEHYIIKLAHATRNHDYIANGVSPRATLALVRAVQALAFLRGREYCTPEDIQLLVPSVWNHRIVLSMEGALRTTKNDIMQSILKEVDVPVEIEQA,not soluble
11,GSHMSHLDNTMAIRLLPLPVRAQLCAHLDALDVWQQLATAVKLYPDQVEQISSQKQRGRSASNEFLNIWGGQYNHTVQTLFALFKKLKLHNAMRLIKDYVSEDLHKYI,soluble
12,MGSDKIHHHHHHARRNILRQTWMSKANSEIVANGRMKPLFLVGLTPGEYKMKKMVMQEAKLYGDIIVVDMNDNYEELTYKSLAILLYGVSKAPRYQMIGKIDEDVMFFPDKLTELYDQGFIDATPLRIYGLKMQSGANIFRDKTHRWYVPESSYSCSKFPEYVSGMLYMVTWEAAQQIIKSTKYRDFIQVEDVFLTGILAEDLGISVKNLP,not soluble
13,MKQGKFSVFLILLLMLTLVVAPKGKAEAASSGWQPVSGISGCKIRVITDAYTYTKSATSIDAYAETNGKCGKLNYKSFGVSIVEGGDIGPQYSGYFSSRTPTKKFYFSKLPKPTGTPWAVGLSVYKGKAKGAAFVYINPQKRLEHHHHHH,not soluble
14,STRERLLSALEDLEVLSRELIEMLAISRNQKLLQAGEENQVLELLIHRDGEFQELMKLALNQGKIHHEMQVLEKEVEKRDSDIQQLQKQLKEAEQILATAVYQAKEKLKSIEKARKGAISSEEIIKYAHRISASNAVCAPLTWVPGDPRRPYPTDLEMRSGLLG,not soluble
15,WLLAELTYRCPLQCPYCSNPLDFARQDKELTTEQWIEVFRQARAMGSVQLGFSGGEPLTRKDLPELIRAARDLGFYTNLITSGIGLTESKLDAFSEAGLDHIQISFQASDEVLNAALAGNKKAFQQKLTMAKAVKARDYPMVLNFVLHRHNIDQLDKIIELCIELEADDVELATCQFYGWAFLNREGLLPTREQIARAEQVVADYRQKMAASGNLTNLLFVTPDYYEERPKGCMGGWGSIFLSVTPEGTALPCH,not soluble
